We go through ten molecules from patent US20260125472A1 (HEFEI TG IMMUNOPHARMA, published 2026).

As a reminder, the EC50 (read off the curve) is the concentration that produces a half-maximal response. For orientation: Kd means the free concentration of one partner at which half of the binding sites on the other are occupied at equilibrium, for simple one-to-one binding. One may read the koff as the first-order rate constant of dissociation. Broadly, the kon is a measure of how fast the partners come together.

Positions count from the first letter of the chain named.

For assay [1], the target named is T1, PDL1 on A-375 melanoma cells, HCT-15 colorectal cancer cells and A549 lung cancer cells (UniProt Q9NZQ7 19-290, limits assumed).
T1 construct: whole, on cells
T1 sequence (Q9NZQ7 19-290 limits assumed): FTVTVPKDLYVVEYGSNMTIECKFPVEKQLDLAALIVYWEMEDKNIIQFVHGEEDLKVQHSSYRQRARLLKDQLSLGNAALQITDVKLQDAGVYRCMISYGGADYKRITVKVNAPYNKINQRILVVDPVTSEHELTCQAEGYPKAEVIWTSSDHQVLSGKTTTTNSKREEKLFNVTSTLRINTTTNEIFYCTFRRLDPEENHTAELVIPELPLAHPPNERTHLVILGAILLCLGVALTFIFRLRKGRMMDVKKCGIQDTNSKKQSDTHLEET
Put plainly: flow cytometry, A549 cells, MFI [panel B]. On the procedure:
(2) The tumor cells were diluted to 2×10⁶/ml with PBS and added to a 1.5 ml EP tube at a volume of 100 μl/tube, and goat serum was added thereto at 10 μl/tube. The cells were blocked at 4° C. for 30 min. The serially diluted bispecific antibodies, Cross3×Trop2, Cross303×Trop2, Cross307×Trop2, Cross308×Trop2, Cross309×Trop2, Cross310×Trop2, Cross311×Trop2, Cross312×Trop2, Cross313×Trop2, Cross314×Trop2, Cross316×Trop2, Cross317×Trop2, Cross318×Trop2, Cross323×Trop2, Cross325×Trop2, Cross326×Trop2, and Cross3×PDL1, Cross303×PDL1, Cross307×PDL1, Cross308×PDL1, Cross309×PDL1, Cross310×PDL1, Cross311×PDL1, Cross312×PDL1, Cross313×PDL1, Cross314×PDL1, Cross316×PDL1, Cross317×PDL1, Cross318×PDL1, Cross323×PDL1, Cross325×PDL1, Cross326×PDL1, and control hIgG1LALA (purchased from Bio-Tech) were added and incubated at 4° C. for 30 min. 1 ml of PBS was added to the EP tube, followed by centrifugation at 3500 rpm for 5 min at 4° C. The supernatant was discarded, and the cells were washed again with PBS. After centrifugation, the supernatant was completely discarded, and the cells were resuspended with PBS at 100 μl/tube. Alexa-647-labeled goat anti-human IgG secondary antibody (purchased from Jackson lab) was added at 1 μl/tube and incubated at 4° C. in the dark for 30 min. The cells were washed twice with PBS, and the supernatant was completely discarded after centrifugation. The cells were resuspended with PBS at 200 μl/tube and assay was performed using the flow cytometry.

For assay [2], the target named is T2, PDL1 protein (UniProt Q9NZQ7 19-238).
T2 construct: Bought recombinant protein
T2 sequence (Q9NZQ7 19-238 limits assumed): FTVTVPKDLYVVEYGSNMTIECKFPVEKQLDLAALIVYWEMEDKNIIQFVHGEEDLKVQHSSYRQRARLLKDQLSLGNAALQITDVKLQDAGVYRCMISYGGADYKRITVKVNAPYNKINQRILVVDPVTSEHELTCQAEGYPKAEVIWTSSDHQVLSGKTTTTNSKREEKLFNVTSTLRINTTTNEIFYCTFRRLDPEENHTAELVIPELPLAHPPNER
The experiment in a line: ELISA, coated PDL1 protein, OD450 [panel A]. The procedure: (3) PDL1 protein (purchased from Acro) was diluted to 2 μg/ml with PBS buffer, added to a 96-well plate at a volume of 100 μL/well, and placed at 4° C. overnight. The PBS buffer in the 96-well plate was aspirated, and the plate was washed 6 times with PBST (pH 7.2 PBS containing 0.10% Tween 20) buffer. Then, PBS/10% BSA was added at 200 μL/well and incubated at 37° C. for 2 h for blocking. The blocking solution was removed, and the plate was washed six times with PBST. Then, the to-be-tested bispecific antibodies serially diluted with PBST/0.05% BSA, Cross3×PDL1, Cross303×PDL1, Cross307×PDL1, Cross308×PDL1, Cross309×PDL1, Cross310×PDL1, Cross311×PDL1, Cross312×PDL1, Cross313×PDL1, Cross314×PDL1, Cross316×PDL1, Cross317×PDL1, Cross318×PDL1, Cross323×PDL1, Cross325×PDL1, Cross326×PDL1, and control IgG1LALA (purchased from Bio-Tech) were added at 100 μL/well, and incubated at 37° C. for 1 h. The reaction system was removed, and the plate was washed 6 times with PBST. Then, the cells were incubated at 37° C. for 1 h with HRP (horseradish peroxidase)-labeled anti-human secondary antibody (Fab specific) (purchased from Sigma) serially diluted with PBST/0.05% BSA at 100 μL/well. After the plate was washed six times with PBST, TMB (tetramethylbenzidine) was added at 80 μL/well and incubated at room temperature for 3 min. 4 M sulfuric acid was added at 80 μL/well to terminate the reaction. The absorbance was read at 450 nm using a microplate reader.
(In general: ELISA stands for enzyme-linked immunosorbent assay.)

The target in assay [3] is T3, CD3E&D protein (UniProt P04234 22-105).
T3 construct: Purchased from Acro; also called CD3 E&D antigens; CD3E&D antigen protein
T3 sequence (chain, as listed by the source limits assumed, chain 1 of 2): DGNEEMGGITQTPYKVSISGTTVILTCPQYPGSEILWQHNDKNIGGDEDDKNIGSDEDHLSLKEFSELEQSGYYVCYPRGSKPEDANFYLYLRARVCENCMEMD
T3 sequence (P04234 22-105 limits assumed, chain 2 of 2): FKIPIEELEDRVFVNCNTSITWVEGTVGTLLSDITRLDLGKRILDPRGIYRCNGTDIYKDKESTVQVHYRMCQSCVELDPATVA
The experiment in a line: SPR (Biacore 8K), antibody on CM5 chip, CD3 E&D antigen as analyte. Also on record: Fold change: reference not given here. On the procedure:
In a Biacore 8K (Cytiva) system, the antibody was diluted to 10 μg/mL in HBS-EP running buffer and coupled to a CM5 chip (Cytiva) at a flow rate of 10 μL/min.

Assay [4] has as its target T3, CD3E&D protein. Put plainly: ELISA, coated CD3E&D protein, OD450 [panel A]. On the procedure:
(§1) In this example, the binding properties of the parental antibody Cross3 and the CD3 affinity-reduced antibody (the production method and the amino acid sequences of the heavy and light chains were shown in Example 1) were detected by ELISA. The CD3E&D protein was coated onto a 96-well plate by the inventors, and the strength of the signal after the addition of the antibody was used to determine the binding properties of the antibody and CD3E&D.
(§2) CD3E&D protein (purchased from Acro) was diluted to 2 μg/ml with PBS buffer, added to a 96-well plate at a volume of 100 μL/well, and placed at 4° C. overnight. The PBS buffer in the 96-well plate was aspirated, and the plate was washed 6 times with PBST (pH 7.2 PBS containing 0.1% Tween 20) buffer. Then, 200 μL/well PBS/10% BSA was added and incubated at 37° C. for 2 h for blocking. The blocking solution was removed, and the plate was washed six times with PBST. Then, the to-be-tested antibodies serially diluted with PBST/0.05% BSA, Cross3, Cross303, Cross307, Cross308, Cross309, Cross310, Cross311, Cross312, Cross313, Cross314, Cross316, Cross317, Cross318, Cross323, Cross325, Cross326, and control IgG1 (purchased from Bio-Tech) were added at 100 μL/well, and incubated at 37° C. for 1 h. The reaction system was removed, and the plate was washed 6 times with PBST. Then, the cells were incubated at 37° C. for 1 h with HRP (horseradish peroxidase)-labeled anti-human secondary antibody (Fab specific) (purchased from Sigma) serially diluted with PBST/0.05% BSA at 100 μL/well. The plate was washed six times with PBST, TMB (tetramethylbenzidine) was added at 80 μL/well and incubated at room temperature for 3 min. 4 M sulfuric acid was added at 80 μL/well to terminate the reaction. The absorbance was read at 450 nm using a microplate reader.

In assay [5] the target is T3, CD3E&D protein. The experiment in a line: ELISA, coated CD3E&D protein, OD450 [panel B]. The procedure: as §1, §2
Assay [6] addresses T4, CD3 on CD8 T cells (Homo sapiens (Human), UniProt P07766 23-207).
T4 construct: Native CD3 complex on CD8 T cells among PBMCs; also called T cells (PBMCs gated with anti-human CD8 antibody)
Put plainly: flow cytometry, CD8 T cells in PBMCs, binding ratio % [panel A]. The procedure: PBMCs were diluted with PBS to 2×10⁶/mL and added to a 1.5 ml EP tube at a volume of 100 μL/tube, 10 μL/tube of goat serum was added thereto and incubated at 4° C. for 30 min for blocking. […] 1 mL of PBS was added to the EP tube, followed by centrifugation at 3500 rpm for 5 min at 4° C. The supernatant was discarded, and the cells were washed again with PBS. After centrifugation, the supernatant was discarded, and the cells were resuspended with 100 μl/tube PBS. 1 μl/tube Alexa-647-labeled goat anti-human secondary antibody (purchased from Jackson lab) and 0.5 μl/tube PerCP-Cy5.5-labeled anti-human CD8 antibody were added and incubated at 4° C. in the dark for 30 min. The cells were washed twice with PBS, and the supernatant was discarded after centrifugation. The cells were resuspended with […] of PBS and assayed using the flow cytometry.
On the technique in general: A flow cytometer gives signals particle by particle.

T4 sequence (P07766 23-207 limits assumed): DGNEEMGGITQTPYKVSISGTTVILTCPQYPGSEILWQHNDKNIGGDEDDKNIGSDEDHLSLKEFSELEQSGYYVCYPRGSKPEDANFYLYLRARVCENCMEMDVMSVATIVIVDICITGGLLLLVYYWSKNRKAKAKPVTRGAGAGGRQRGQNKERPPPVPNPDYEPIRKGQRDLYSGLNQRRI

B1: Cross312×PDL1 (bispecific antibody, human IgG1, kappa, L234A L235A)
scFv: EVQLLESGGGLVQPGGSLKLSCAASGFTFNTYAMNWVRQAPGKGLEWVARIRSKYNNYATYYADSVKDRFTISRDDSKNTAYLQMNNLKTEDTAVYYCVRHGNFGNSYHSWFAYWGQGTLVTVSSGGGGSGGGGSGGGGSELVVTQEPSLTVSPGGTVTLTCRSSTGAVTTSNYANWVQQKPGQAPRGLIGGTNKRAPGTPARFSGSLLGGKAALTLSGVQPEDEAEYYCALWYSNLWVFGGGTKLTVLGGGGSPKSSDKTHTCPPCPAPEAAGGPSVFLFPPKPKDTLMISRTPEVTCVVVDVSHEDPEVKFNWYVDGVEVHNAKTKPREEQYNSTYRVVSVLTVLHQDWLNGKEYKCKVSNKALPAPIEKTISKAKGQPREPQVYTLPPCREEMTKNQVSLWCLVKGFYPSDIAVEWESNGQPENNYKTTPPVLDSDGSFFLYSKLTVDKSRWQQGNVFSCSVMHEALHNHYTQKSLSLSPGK
heavy: QVQLVQSGAEVKKPGASVKVSCKASGYSFTGYYMHWVRQAPGQGLEWIGRINPYNGATTYSQNFKDRATMTVDTSISTAYMELSRLRSDDTAVYYCVPTGMGYFLMDYWGQGTLVTVSSASTKGPSVFPLAPSSKSTSGGTAALGCLVKDYFPEPVTVSWNSGALTSGVHTFPAVLQSSGLYSLSSVVTVPSSSLGTQTYICNVNHKPSNTKVDKKVEPKSCDKTHTCPPCPAPEAAGGPSVFLFPPKPKDTLMISRTPEVTCVVVDVSHEDPEVKFNWYVDGVEVHNAKTKPREEQYNSTYRVVSVLTVLHQDWLNGKEYKCKVSNKALPAPIEKTISKAKGQPREPQVCTLPPSREEMTKNQVSLSCAVKGFYPSDIAVEWESNGQPENNYKTTPPVLDSDGSFFLVSKLTVDKSRWQQGNVFSCSVMHEALHNHYTQKSLSLSPGK
light: DIQLTQSPSFLSASVGDRVTITCKASQDVGSAVVWYQQKPGKAPKLLIYWASTRHTGVPSRFSGSGSGTEFTLTISSLQPEDFATYFCQQFTSYPTFGQGTKLEIKRTVAAPSVFIFPPSDEQLKSGTASVVCLLNNFYPREAKVQWKVDNALQSGNSQESVTEQDSKDSTYSLSSTLTLSKADYEKHKVYACEVTHQGLSSPVTKSFNRGEC
For the molecule B1, the “EC50 (read off the curve)” value in assay [1] was roughly 2 µg/mL; in assay [2], roughly 0.2 µg/mL.

B2: Cross314×PDL1 (bispecific antibody, human IgG1, kappa, L234A L235A)
scFv: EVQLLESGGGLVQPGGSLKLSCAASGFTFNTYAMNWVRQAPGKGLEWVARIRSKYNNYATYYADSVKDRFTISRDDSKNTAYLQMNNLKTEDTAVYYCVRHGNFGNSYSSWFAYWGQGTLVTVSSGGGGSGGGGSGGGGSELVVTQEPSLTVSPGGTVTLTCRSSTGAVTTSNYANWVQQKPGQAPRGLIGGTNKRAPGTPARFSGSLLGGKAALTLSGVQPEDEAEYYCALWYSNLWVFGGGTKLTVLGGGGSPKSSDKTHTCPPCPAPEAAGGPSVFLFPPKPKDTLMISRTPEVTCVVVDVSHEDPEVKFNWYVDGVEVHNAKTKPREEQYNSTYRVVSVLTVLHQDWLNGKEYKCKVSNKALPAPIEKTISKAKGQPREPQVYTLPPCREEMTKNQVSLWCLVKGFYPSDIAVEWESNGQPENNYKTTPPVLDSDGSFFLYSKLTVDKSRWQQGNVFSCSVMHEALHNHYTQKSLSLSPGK
heavy: B1 heavy
light: B1 light
In the case of B2, the “EC50 (read off the curve)” value was roughly 1 µg/mL in assay [1] and roughly 0.2 µg/mL in assay [2].

B3: Cross303 (antibody, human IgG1, kappa, V domains shown)
VH: EVQLLESGGGLVQPGGSLKLSCAASGFTFNTYAMNWVRQAPGKGLEWVARIRSKYNNYATYYADSVKDRFTISRDDSKNTAYLQMNNLKTEDTAVYYCVRHGMFGNSYVSWFAYWGQGTLVTVSS
VL: ELVVTQEPSLTVSPGGTVTLTCRSSTGAVTTSNYANWVQQKPGQAPRGLIGGTNKRAPGTPARFSGSLLGGKAALTLSGVQPEDEAEYYCALWYSNLWVFGGGTKLTVLR
For the molecule B3, in assay [3], the Fold change was found to be 12.7, the dissociation constant (Kd) was found to be 2.09 nM, the koff amounted to 0.0991 s⁻¹ and the kon turned out to be 4.75e+07 M⁻¹ s⁻¹. Also, the “EC50 (read off the curve)” value in assay [4] is roughly 0.03 µg/mL.

B4: Cross316 (antibody, human IgG1, kappa, V domains shown)
VH: B3 VH with M103N, A113L
VL: B3 VL
Regarding B4, in assay [3], the Fold change was 20.8; the affinity, expressed as Kd, was 3.43 nM; the koff was determined as 0.00249 s⁻¹; the on-rate constant (kon) is 728000 M⁻¹ s⁻¹. The “EC50 (read off the curve)” value in assay [5] was roughly 0.03 µg/mL. In addition, the “EC50 (read off the curve)” value in assay [6] was roughly 0.3 µg/mL.

B5: Cross312 (antibody, human IgG1, kappa, V domains shown)
VH: B3 VH with M103N, V109H
VL: B3 VL
As for B5, in assay [3], the Fold change was 21.2, binding was characterised by a dissociation constant (Kd) of 3.5 nM, the koff was 0.0107 s⁻¹ and the kon is 3.05e+06 M⁻¹ s⁻¹. The “EC50 (read off the curve)” value in assay [5] was roughly 0.03 µg/mL. Besides, in assay [6], the “EC50 (read off the curve)” value was roughly 0.3 µg/mL.

B6: Cross311 (antibody, human IgG1, kappa, V domains shown)
VH: B3 VH with M103N, Y108E
VL: B3 VL
With B6, in assay [3], the Fold change is 27.6, binding was characterised by a dissociation constant (Kd) of 4.55 nM, the koff was found to be 0.00959 s⁻¹ and the kon amounted to 2.11e+06 M⁻¹ s⁻¹. In addition, in assay [5], the “EC50 (read off the curve)” value is roughly 0.03 µg/mL. Also, in assay [6], the “EC50 (read off the curve)” value is roughly 0.3 µg/mL.

B7: Cross307 (antibody, human IgG1, kappa, V domains shown)
VH: B3 VH with M103N, S107E
VL: B3 VL
In assay [3], B7 registered a Fold change of 21, a Kd of 3.47 nM, a koff of 0.00473 s⁻¹ and a kon of 1.36e+06 M⁻¹ s⁻¹. Further, the “EC50 (read off the curve)” value in assay [4] is roughly 0.03 µg/mL.

B8: Cross313 (antibody, human IgG1, kappa, V domains shown)
VH: B3 VH with M103N, V109Q
VL: B3 VL
In assay [3], B8 came in with a Fold change of 11.6, a Kd of 1.92 nM, a koff of 0.00567 s⁻¹ and a kon of 2.96e+06 M⁻¹ s⁻¹. The “EC50 (read off the curve)” value in assay [5] was roughly 0.03 µg/mL. Besides, in assay [6], the “EC50 (read off the curve)” value is roughly 0.3 µg/mL.

B9: Cross314 (antibody, human IgG1, kappa, V domains shown)
VH: B3 VH with M103N, V109S
VL: B3 VL
In assay [3], B9 gave a Fold change of 26.5, a Kd of 4.37 nM, a koff of 0.00887 s⁻¹ and a kon of 2.03e+06 M⁻¹ s⁻¹. For the same molecule, the concentration giving a half-maximal response (EC50 (read off the curve)) in assay [5] is roughly 0.03 µg/mL. In assay [6], the concentration for a half-maximal effect (EC50 (read off the curve)) was roughly 0.4 µg/mL.

B10: Cross318 (antibody, human IgG1, kappa, V domains shown)
VH: B3 VH with M103N, Y114M
VL: B3 VL
In assay [3], B10 came in with a Fold change of 20.1, a dissociation constant Kd of 3.32 nM, a koff of 0.0056 s⁻¹ and a kon of 1.69e+06 M⁻¹ s⁻¹. Also, the “EC50 (read off the curve)” value in assay [5] was roughly 0.03 µg/mL.
